For experiment [1], the target named is T1, MIL-38 antigen (GPC-1) as present in DU-145 and other cell lines (UniProt P35052 24-530).
T1 construct: whole, on cells; In IFA it stood on acetone-fixed cells; in Western blots it stood in membrane protein (MPEK) extracts of the cells; also called GPC-1 antigen
T1 sequence (looked up): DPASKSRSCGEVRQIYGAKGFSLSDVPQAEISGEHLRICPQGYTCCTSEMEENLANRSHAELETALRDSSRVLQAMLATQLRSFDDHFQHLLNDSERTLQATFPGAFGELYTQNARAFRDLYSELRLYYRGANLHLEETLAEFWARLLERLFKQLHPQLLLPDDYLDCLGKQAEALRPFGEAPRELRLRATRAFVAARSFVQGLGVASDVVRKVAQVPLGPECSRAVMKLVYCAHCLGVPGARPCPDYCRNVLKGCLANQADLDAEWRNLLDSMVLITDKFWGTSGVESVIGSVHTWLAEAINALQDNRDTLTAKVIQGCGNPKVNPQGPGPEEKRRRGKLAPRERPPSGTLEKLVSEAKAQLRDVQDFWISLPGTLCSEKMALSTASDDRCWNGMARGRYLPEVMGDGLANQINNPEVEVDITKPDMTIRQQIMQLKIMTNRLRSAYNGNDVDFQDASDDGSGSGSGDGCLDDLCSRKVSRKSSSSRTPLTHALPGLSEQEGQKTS
The experiment can be described thus: Western blot on DU-145 and C3 extracts (FIG. 2B).

The target in experiment [2] is T2, recombinant human GPC-1 produced from NS0 cells (human, UniProt P35052 24-530).
T2 construct: also called GPC-1 NS0; recombinant NS0-produced GPC-1
T2 sequence (looked up): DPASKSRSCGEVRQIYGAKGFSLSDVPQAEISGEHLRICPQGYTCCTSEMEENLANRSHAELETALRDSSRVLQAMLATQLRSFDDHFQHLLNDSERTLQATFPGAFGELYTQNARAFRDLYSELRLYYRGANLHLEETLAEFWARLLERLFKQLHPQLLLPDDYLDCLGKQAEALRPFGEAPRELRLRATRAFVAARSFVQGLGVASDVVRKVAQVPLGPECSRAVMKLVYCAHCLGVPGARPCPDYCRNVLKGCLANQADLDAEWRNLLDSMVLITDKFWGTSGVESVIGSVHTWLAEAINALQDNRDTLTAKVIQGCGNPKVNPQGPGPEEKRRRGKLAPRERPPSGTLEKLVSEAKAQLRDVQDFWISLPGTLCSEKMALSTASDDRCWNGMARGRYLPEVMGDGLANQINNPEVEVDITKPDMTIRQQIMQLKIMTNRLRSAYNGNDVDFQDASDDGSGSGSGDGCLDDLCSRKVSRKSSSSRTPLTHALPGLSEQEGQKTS
The experiment can be described thus: sandwich ELISA, antibody coated as capture, biotinylated AM-4 as detection (FIG. 6A). The protocol: Plates were blocked with PBS-Tween (0.1.%) containing 5% skim milk at 37° C. and washed. Antigen (recombinant human GPC-1 produced from NS0 cells) diluted in Buffer II (20 mM HEPES pH 7.5, 0.5 mM EDTA, 0.5% Triton X-100) with the addition of 150 mM NaCl and incubated overnight at 37° C. […] Absorbance was read 450 nm.

The target in experiment [3] is T2, recombinant human GPC-1 produced from …. The experiment can be described thus: Western blot, three-antibody detection. As for the experimental part: As a control, murine MIL-38 was detected by goat anti-mouse secondary antibody followed by a sheep-anti-goat HRP antibody. […] The complex was detected using a sheep-anti-goat HRP antibody. […] The complex was detected using a sheep-anti-mouse HRP antibody.
A control western blot using a three antibody detection method was also performed with murine MIL-38. (FIG. 9C).

Experiment [4] deals with T1, MIL-38 antigen (GPC-1) as present in …. The experiment can be described thus: immunofluorescence assay on DU-145 cells (FIG. 8F). The protocol: IFA: Cells were grown on coverslips until 75% confluent and placed in 6 well plates. The cells were washed with PBS followed by fixing with acetone. Cells were washed again with PBS followed by incubation with TBS then blocked with PBS containing 5% skim milk. […] Both antibodies were prepared in PBS containing 1% skim milk followed. Washing with PBS was performed between the primary and secondary antibody incubations. After secondary incubation, cells were washed with PBS containing DAPI and visualised for green fluorescence (MIL-38 positive).
A slide with no primary antibody was used as a negative control.

B1: AM-4 MIL-38 antibody (AusMAb 4) (antibody, mouse IgG1, kappa)
heavy: QIQLVQSGPELKKPGETVKISCKASGYAFTDYSMNWVKQAPGKGLRWMGWINTETGEPTYTDDFKGRFAFSLETSASTAFLQINNLRNEDTATYFCARHYDYGGFPYWGQGTLVTVSAAKTTPPSVYPLAPGSAAQTNSMVTLGCLVKGYFPEPVTVTWNSGSLSSGVHTFPAVLQSDLYTLSSSVTVPSSTWPSETVTCNVAHPASSTKVDKKIVPRDCGCKPCICTVPEVSSVFIFPPKPKDVLTITLTPKVTCVVVDISKDDPEVQFSWFVDDVEVHTAQTQPREEQFNSTFRSVSELPIMHQDWLNGKEFKCRVNSAAFPAPIEKTISKTKGRPKAPQVYTIPPPKEQMAKDKVSLTCMITDFFPEDITVEWQWNGQPAENYKNTQPIMDTDGSYFVYSKLNVQKSNWEAGNTFTCSVLHEGLHNHHTEKSLSHSPGK
light: DIQMTQSPASLSASVGETVTITCRASGNVHNYLAWYQQKQGKSPQLLVYTAKTLADGVPSRFSGSGSGTQYSLKINSLQPEDFGTYYCQHFWSNPWTFGGGTKLEIKRADAAPTVSIFPPSSEQLTSGGASVVCFLNNFYPKDINVKWKIDGSERQNGVLNSWTDQDSKDSTYSMSSTLTLTKDEYERHNSYTCEATHKTSTSPIVKSFNRNEC
notes: Monoclonal mouse IgG1 kappa; Biotinylated AM-4 was also the detection antibody in the sandwich ELISA; also called monoclonal AM-4 MIL-38
As for B1, the binding result in experiment [1] and in experiment [2] was “binds” in each case.

B2: Chimeric MIL-38 antibody (Mouse VH-Human CH1-CH3 / Mouse VK-Human CK) (antibody, human IgG1, kappa)
heavy: not shown
light: DIQMTQSPASLSASVGETVTITCRASGNVHNYLAWYQQKQGKSPQLLVYTAKTLADGVPSRFSGSGSGTQYSLKINSLQPEDFGTYYCQHFWSNPWTFGGGTKLEIKRTVAAPSVFIFPPSDEQLKSGTASVVCLLNNFYPREAKVQWKVDNALQSGNSQESVTEQDSKDSTYSLSSTLTLSKADYEKHKVYACEVTHQGLSSPVTKSFNRGEC
notes: Expressed transiently in CHO-3E7 cells and purified on Protein A; also called MIL-38 chimeric antibody
Regarding B2, the binding result in experiment [3] and in experiment [4] was “binds” each time.

The values are drawn from patent publication US20180072803A1 (MINOMIC INTERNATIONAL, published 2018).
